According to the Immune Epitope Database (IEDB):
pIC50: −log10 of the molar value.

What was measured:
Experiment in all cases: IEDB peptide-MHC binding, cellular MHC/competitive/fluorescence; ≥ and ≤ were set here for values at or beyond the usual limits of such assays
HLA-A*02:01 = biological target: HLA-A*02:01
HLA-A*02:02 = biological target: HLA-A*02:02
HLA-A*02:03 = biological target: HLA-A*02:03
HLA-A*02:06 = biological target: HLA-A*02:06
HLA-A*68:02 = biological target: HLA-A*68:02
[1] = source organism: Vaccinia virus WR
[2] = source organism: Influenza A virus
[3] = source organism: Mammarenavirus whitewaterense

Sequence | pIC50 (HLA-A*02:01; [1]) | pIC50 (HLA-A*02:02; [1]) | pIC50 (HLA-A*02:03; [1]) | pIC50 (HLA-A*02:06; [1]) | pIC50 (HLA-A*68:02; [1]) | other results
KAMHDKKIDI | 4.30 | ≤ 4.15 | 4.34 | 4.58 | ≤ 4.15 | –
TIDNIVTSLA | ≤ 4.15 | ≤ 4.15 | ≤ 4.15 | ≤ 4.15 | ≤ 4.15 | –
AATKRYPGVM | 4.17 | 4.70 | 4.32 | 4.33 | ≤ 4.15 | –
ATYQRTRA | – | – | – | – | – | pIC50 (HLA-A*02:01; [2]): ≤ 4.15; pIC50 (HLA-A*02:02; [2]): ≤ 4.15; pIC50 (HLA-A*02:03; [2]): ≤ 4.15; pIC50 (HLA-A*02:06; [2]): ≤ 4.15; pIC50 (HLA-A*68:02; [2]): ≤ 4.15
DISVNASKTI | 4.83 | 4.33 | 4.93 | ≤ 4.15 | 4.84 | –
YVKNGTKGKL | 4.39 | 5.24 | 5.14 | 4.55 | 4.49 | –
NINFNNSSII | 4.49 | 5.18 | 4.87 | 4.52 | 5.16 | –
GLQSSDDFA | – | – | – | – | – | pIC50 (HLA-A*02:01; [2]): 5.10; pIC50 (HLA-A*02:02; [2]): 4.94; pIC50 (HLA-A*02:03; [2]): 4.73; pIC50 (HLA-A*02:06; [2]): ≤ 4.15; pIC50 (HLA-A*68:02; [2]): ≤ 4.15
PTNDIPSLFI | 4.74 | 4.96 | 4.21 | 4.83 | 4.61 | –
RVTKRDESSI | 4.25 | 4.91 | 4.97 | 4.65 | 5.06 | –
RLEVIGLTT | 4.54 | 4.70 | 4.86 | ≤ 4.30 | 4.88 | –
YTLIYRQLT | 4.55 | 5.19 | 5.03 | 4.75 | 5.10 | –
PLHIVCSKTV | 4.67 | 4.46 | 5.28 | 4.57 | 5.03 | –
ATKRIRMA | – | – | – | – | – | pIC50 (HLA-A*02:01; [2]): 4.37; pIC50 (HLA-A*02:02; [2]): 4.23; pIC50 (HLA-A*02:03; [2]): 4.92; pIC50 (HLA-A*02:06; [2]): ≤ 4.15; pIC50 (HLA-A*68:02; [2]): 4.23
HAKYMVTDKT | 4.29 | 5.04 | 4.46 | 4.19 | ≤ 4.15 | –
IASAPQQLCT | 4.44 | 4.27 | ≤ 4.15 | 5.08 | 4.79 | –
QTRSKAGLLV | – | – | – | – | – | pIC50 (HLA-A*02:01; [2]): ≤ 4.15; pIC50 (HLA-A*02:02; [2]): ≤ 4.15; pIC50 (HLA-A*02:03; [2]): 4.66; pIC50 (HLA-A*02:06; [2]): ≤ 4.15; pIC50 (HLA-A*68:02; [2]): 4.29
YCHGILLKDV | – | – | – | – | – | pIC50 (HLA-A*02:01; [3]): 4.94; pIC50 (HLA-A*02:02; [3]): ≤ 4.15; pIC50 (HLA-A*02:03; [3]): 4.88; pIC50 (HLA-A*02:06; [3]): 4.82; pIC50 (HLA-A*68:02; [3]): 4.24

Sequence | pIC50 (HLA-A*02:01; [1]) | pIC50 (HLA-A*02:02; [1]) | pIC50 (HLA-A*02:03; [1]) | pIC50 (HLA-A*02:06; [1]) | pIC50 (HLA-A*68:02; [1]) | other results
CLEAKTHFST | 4.30 | 4.91 | 4.96 | ≤ 4.15 | ≤ 4.15 | –
QTGINNVQSL | 4.32 | 4.69 | 4.61 | 4.27 | 4.94 | –
ATVSADPL | – | – | – | – | – | pIC50 (HLA-A*02:01; [2]): ≤ 4.15; pIC50 (HLA-A*02:02; [2]): 4.28; pIC50 (HLA-A*02:03; [2]): ≤ 4.15; pIC50 (HLA-A*02:06; [2]): 4.67; pIC50 (HLA-A*68:02; [2]): 4.37
NTTIEKEI | – | – | – | – | – | pIC50 (HLA-A*02:01; [2]): 4.30; pIC50 (HLA-A*02:02; [2]): ≤ 4.15; pIC50 (HLA-A*02:03; [2]): ≤ 4.15; pIC50 (HLA-A*02:06; [2]): ≤ 4.15; pIC50 (HLA-A*68:02; [2]): ≤ 4.15
GIDTSNNIA | 4.76 | 4.30 | ≤ 4.15 | 4.60 | ≤ 4.15 | –
MQLKIDKLT | 4.58 | 5.12 | 4.22 | 4.22 | ≤ 4.15 | –
TQFNFNGHT | ≤ 4.15 | 4.36 | 4.84 | 5.00 | 4.28 | –
RISSSLDQT | 4.20 | 5.17 | 4.89 | 4.56 | 4.17 | –
TVDVRNIVT | 4.98 | 4.87 | 4.88 | 4.27 | 5.22 | –
DILQMREIIT | 4.51 | 4.34 | 4.25 | 4.75 | 4.69 | –
VIVENDNVI | 4.59 | 4.81 | 4.71 | 5.14 | 5.10 | –
AVPNGTLV | – | – | – | – | – | pIC50 (HLA-A*02:01; [2]): ≤ 4.15; pIC50 (HLA-A*02:02; [2]): 4.97; pIC50 (HLA-A*02:03; [2]): ≤ 4.15; pIC50 (HLA-A*02:06; [2]): 4.97; pIC50 (HLA-A*68:02; [2]): 4.37
TQLFKYVPSA | ≤ 4.15 | ≤ 4.15 | ≤ 4.15 | ≤ 4.15 | ≤ 4.15 | –
VVKDKIKLPT | 4.40 | 4.43 | 5.07 | 4.54 | 4.37 | –
KLTKDRKML | 4.25 | 4.61 | 4.44 | ≤ 4.15 | ≤ 4.15 | –
YVEHDPRLVA | 4.24 | 4.73 | 4.79 | 4.92 | 4.51 | –
VIPFDDIVRT | 4.61 | 4.20 | 4.30 | 4.74 | 4.37 | –
